Results as given in publication PMC2119237.
Where no end group is shown, it is not given here. The star is where a group is joined. AMCA = 7-amino-4-methyl-coumarin-3-acetic acid, Cc1c(CC(=O)*)c(=O)oc2cc(N)ccc12

Target: HLA-DR1 (human (endogenous in WT-100))
Experiment: SEC

binding capacity relative to IM(18-29): 3 fold
Binder: {AMCA}-AILEFRAMAQFSRKTD [AMCA-SP3(1-16), synthetic self-peptide SP3 labelled at the NH2 terminus]
